Holding throughout (test): BLI
Holding throughout (settings): both partners purified

For experiment [1], the target named is influenza hemagglutinin (HA) from H1N1 A/California/07/2009 (Influenza A virus H1N1 …, UniProt C3W5X2, biotinylated).
Experiment [2] deals with T1, biotinylated αTSR domain of P. falciparum circumsporozoite protein (Plasmodium falciparum 3D7 (by PDB 7RXI)).
T1 construct: also called P. falciparum CSP; C-terminal αTSR domain of P. falciparum circumsporozoite protein
T1 chain: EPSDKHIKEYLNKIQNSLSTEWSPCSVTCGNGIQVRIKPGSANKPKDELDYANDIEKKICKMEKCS

Experiment [3] deals with T2, His6-tagged SARS-CoV-2 receptor-binding domain (SARS-CoV-2, UniProt P0DTC2).
T2 construct: source: High Five cells, purified (Ni-NTA, size exclusion)

B1: 5J8 Fab (WT) (Fab, V domains shown)
VH: EVQLVESGPGLVKPSDILSLTCAVSGYSISSNYYWGWIRQPPGKGLEWIGSIYHSGSTYYKPSLESRLGISVDTSKNQFSLKLSFVSAADTAVYYCARHVRSGYPDTAYYFDKWGQGTLVTVSS
VL: SYVLTQPPSVSVAPGETARISCGGNNIGTKVLHWYQQTPGQAPVLVVYDDSDRPSGIPERFSGSNSGNTATLTISRVEVGDEADYYCQVWDISTDQAVFGGGTKLTVL
notes: also called IGLV3–21 antibody 5J8; source: ExpiCHO, transiently co-transfected, purified (CaptureSelect CH1-XL)
In the case of B1, the binding result in experiment [1] was “binds”.

B2: Fab234 (WT) (Fab, V domains shown)
VH: EVQLVESGGGLVKPGGSLRLSCAASGFNFSTHIMNWVRQAPGKGLEWVSSISSSGTYIYYADSMKGRFTISRDNPKNSLYLQMNSLRAEDTAVYYCARARGFIQFHYYMDVWGKGTTVAVSS
VL: SYVLTQPPSVSVAPGKTARITCGGNNIGSKSVHWHQQRPGQAPVLVVYDDKIRPSGIPERFSGSNSGNTATLIISRVEAGDEADYYCQVWHSSSDPVVFGGGTKLTVL
Take B2: in experiment [2], the binding result was “binds”.

B3: GAR12 Fab VL D50K (Fab, V domains shown)
VH: EVQLVQSGGGLVQPGGSLRLSCAASGFTFSSYAMSWVRQAPGKGLEWVLSISGSGGSTYYADSVKGRFTISIDNSKKTVYLQMNSLRAEDTAVYYCAKSGEQQLVQAEYFHHWGQGTLVTVSS
VL: DIQMTQSPSTLSASVGDRVTITCRASQSIGRWLAWYQQKPGKAPKLLIYKASSLESGVPSRFSGSGFGTEFTLTISSLQPDDFATYYCQQCDSLLTFGGGTKLEIK
notes: also called GAR12 VL D50K; source: ExpiCHO, transiently co-transfected, purified (CaptureSelect CH1-XL)
As to B3, in experiment [3], the “fold change in KD against the wild type” value came to 44 fold.

(Values after article doi:10.1101/2023.06.06.543969 (bioRxiv, 2023).)
